Molecular target: T1, GST protein (UniProt P08515 1-218 = GST)
T1 construct: Control protein of the GST pull-down, on glutathione beads; also called protein consisting of the GST part alone; product of pGEX-6P-1
Assay: GST pull-down with 35S-labeled in vitro translated protein, SDS-PAGE, autoradiography
Description: Using the protein GST-Cbl prepared above in (2), the presence or absence of the direct interaction of human and mouse CbAP40 proteins with the c-Cbl protein was confirmed by the GST-pull down method (Zikken Kougaku, Vol. 13, No. 6, 1994, p. 528, Matsushime, et al.). Using 0.5 μg of pcDNA-CbAP40 prepared above in Example 1(4) or pcDNA-mCbAP40 prepared above in Example 8(2) as a template, and additionally using 40 μl of TNT kit (TNT^R Quick Coupled Transcription/Translation System; Promega) and 1.3 MBq of a radioisotope (redivue Pro-mix L-[³⁵S]; Amersham) according to the attached protocol, human or mouse CbAP40 protein radioactively labeled was prepared by in vitro transcription and translation. Then, 15 μl each of the prepared solution of human or mouse CbAP40 protein was mixed with 1 μl of the GST protein or GST-Cbl purified on glutathione beads as described above in (2) to which 0.3 ml of Buffer A (50 mM Tris-HCl, pH 7.5, 10% glycerol, 120 mM NaCl, 1 mM EDTA, 0.1 mM EGTA, 0.5 mM PMSF, 0.5% NP-40) was added. The resulting mixture was shaken at 4° C. for one hour. Subsequently, the protein binding to the GST protein or GST-Cbl on the bead was co-precipitated by centrifugation. […] Consequently, a band never detected in mixing the GST protein was detected in case of mixing GST-Cbl.

T1 sequence (P08515 whole entry): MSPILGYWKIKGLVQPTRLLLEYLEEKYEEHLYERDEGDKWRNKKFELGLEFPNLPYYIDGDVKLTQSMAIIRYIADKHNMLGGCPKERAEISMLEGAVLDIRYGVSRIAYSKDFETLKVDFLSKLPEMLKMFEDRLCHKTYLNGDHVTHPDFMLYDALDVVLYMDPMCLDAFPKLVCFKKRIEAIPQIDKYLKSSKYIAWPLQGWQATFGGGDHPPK

B1: human CbAP40-V5-His6 fusion protein (other, not shown: small tags and cut ends)
chain: MMSSSWPGTSPRLSRGSGSCLTSGATGPCQADSSLKAGPGAGVFFLSSAEGEQISFLFDCIVRGISPTKGPFGLRPVLPDPSPPGPSTVEERVAQEALETLQLEKRLSLLSHAGRPGSGGDDRSLSSSSSEASHLDVSASSRLTAWPEQSSSSASTSQEGPRPAAAQAAGEAMVGASRPPPKPLRPRQLQEVGRQSSSDSGIATGSHSSYSSSLSSYAGSSLDVWRATDELGSLLSLPAAGAPEPSLCTCLPGTVEYQVPTSLRAHYDTPRSLCLAPRDHSPPSQGSPGNSAARDSGGQTSAGCPSGWLGTRRRGLVMEAPQGSEATLPGPAPGEPWEAGGPHAGPPPAFFSACPVCGGLKVNPPP
modifications: radioactively labeled by in vitro transcription and translation with redivue Pro-mix L-[35S]
notes: Made by in vitro transcription/translation (TNT kit) from pcDNA-CbAP40; 411 amino acids in total with the 45-residue C-terminal tag. 'mature' stands here for the full-length protein (no signal peptide is mentioned); also called human CbAP40 protein; Cbl associated protein 40
Does B1 bind?
Result: no binding

Reference: patent US20070015155A1 (published 2007)
